PMC3457934

Molecular target: in vitro assembled HIV-1 CA-NC complexes (HIV-1)
Test: co-sedimentation; 5 µl in vitro assembled CA-NC particles incubated with 200 µl 293T cell lysate (capsid-binding buffer plus 1X PBS) at room temperature for 1 hour; spun through a 70% sucrose cushion at 100,000×g for 1 hour at 4°C; pellet (BOUND) and INPUT analysed by Western blotting (anti-GFP, anti-HA, anti-p24); fluorescent quantification of three independent experiments

Substance	ratio bound/input
GFP-RanBP2 (full-length Nup358/RanBP2 fused to GFP) (from UniProt P49792 1-3224) (natural protein)	1
GFP-RanBP2-ΔCyp deletion mutant (from UniProt P49792 1-2786) (domain or fragment)	0.39
